In publication PMC3731240:

How the values were obtained:
Assay in all cases: SPR
[1] = molecular target: Ghfp^M4 (R288H) (Neisseria gonorrhoeae strain FA1090)
[2] = molecular target: factor H binding protein (fHbp) V3.45, recombinant, wild type (Neisseria meningitidis) (UniProt E6MV22)
[3] = molecular target: Ghfp^M4–5 (R288H and D318G) (Neisseria gonorrhoeae strain FA1090)

complement control protein (CCP) domains 6 and 7 of fH (fH6–7) (domain or fragment)
Kd [1]: 16 nM
Kd [2]: 1 nM
Kd [3]: 2 nM
